Where a chain is given by its changes, count along the chain named.

The values below come from patent US20190041402A1 (GOVERNING COUNCIL OF THE UNIVERSITY OF TORONTO, published 2019).

For test [1], the target named is T1, extracellular domain (ECD) of human αKlotho, amino acids E34-S981 with C-terminal 6-His tag (R&D Systems … (human, UniProt Q9UEF7 34-981)).
T1 construct: range 34-981; also called αKlotho (aa34-981); target antigen
T1 sequence: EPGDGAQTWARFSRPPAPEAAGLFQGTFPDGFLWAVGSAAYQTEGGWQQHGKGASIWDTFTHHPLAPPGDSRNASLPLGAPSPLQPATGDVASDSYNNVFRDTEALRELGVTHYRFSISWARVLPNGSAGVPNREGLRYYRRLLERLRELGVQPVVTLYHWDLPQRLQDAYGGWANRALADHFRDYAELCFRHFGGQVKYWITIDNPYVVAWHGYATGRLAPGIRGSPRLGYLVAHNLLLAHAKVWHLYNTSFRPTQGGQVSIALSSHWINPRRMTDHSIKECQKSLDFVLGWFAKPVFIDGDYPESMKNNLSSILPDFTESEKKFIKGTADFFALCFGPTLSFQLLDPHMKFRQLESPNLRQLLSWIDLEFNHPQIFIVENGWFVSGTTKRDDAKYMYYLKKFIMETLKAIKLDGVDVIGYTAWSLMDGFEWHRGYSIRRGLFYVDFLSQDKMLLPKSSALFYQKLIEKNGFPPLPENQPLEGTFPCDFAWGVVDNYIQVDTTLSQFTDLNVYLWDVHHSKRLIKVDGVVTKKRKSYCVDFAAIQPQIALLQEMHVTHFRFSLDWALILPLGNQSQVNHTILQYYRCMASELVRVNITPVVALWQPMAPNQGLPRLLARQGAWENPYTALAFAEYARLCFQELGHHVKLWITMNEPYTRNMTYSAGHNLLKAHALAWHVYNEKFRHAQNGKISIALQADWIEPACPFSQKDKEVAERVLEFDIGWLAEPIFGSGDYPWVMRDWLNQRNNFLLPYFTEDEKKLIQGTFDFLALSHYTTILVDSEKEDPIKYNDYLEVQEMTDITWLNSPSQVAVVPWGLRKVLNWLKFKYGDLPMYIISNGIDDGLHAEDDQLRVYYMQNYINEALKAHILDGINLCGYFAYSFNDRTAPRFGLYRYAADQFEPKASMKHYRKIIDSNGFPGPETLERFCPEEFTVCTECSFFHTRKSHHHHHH
Nature of the test: SPR, Fab captured by anti-H+L IgG, αKlotho injected at 50 to 6.25 ug/ml, Langmuir fit [continued]. As to the method:
(§1) Affinity estimates for each of the antibodies were determined by surface plasmon resonance (SPR). Fabs were immobilized using an anti-H+L antibody and serial dilutions of αKlotho were injected.
A general note: Surface plasmon resonance follows binding to a sensor surface in real time, without labels.

The target of another test is T2, bovine serum albumin (bovine, UniProt P02769 25-607).
T2 construct: also called BSA
The test can be described thus: Fab ELISA, purified Fab 5 ug/ml on immobilised BSA, anti-Flag-HRP, A450. As to the method:
FIG. 10 is a graph showing absorbance values of Fab ELISAs with additional αKlotho antibodies. Purified Fabs [5 ug/ml] were incubated with immobilized αKlotho (1 ug/ml) or bovine serum albumin (BSA), as a negative control. After washing off unbound Fab, bound Fab were detected using an HRP-conjugated anti-Flag anti-body (Fabs have Flag-tag on the light chain). Colorimetric HRP reagents allow for absorbance readings at 450 nm.

Test [2] concerns the target T1, extracellular domain (ECD) of human …. Nature of the test: SPR, Fab captured by anti-H+L antibody, αKlotho injected. As to the method: as §1

T2 sequence (P02769 25-607 limits assumed): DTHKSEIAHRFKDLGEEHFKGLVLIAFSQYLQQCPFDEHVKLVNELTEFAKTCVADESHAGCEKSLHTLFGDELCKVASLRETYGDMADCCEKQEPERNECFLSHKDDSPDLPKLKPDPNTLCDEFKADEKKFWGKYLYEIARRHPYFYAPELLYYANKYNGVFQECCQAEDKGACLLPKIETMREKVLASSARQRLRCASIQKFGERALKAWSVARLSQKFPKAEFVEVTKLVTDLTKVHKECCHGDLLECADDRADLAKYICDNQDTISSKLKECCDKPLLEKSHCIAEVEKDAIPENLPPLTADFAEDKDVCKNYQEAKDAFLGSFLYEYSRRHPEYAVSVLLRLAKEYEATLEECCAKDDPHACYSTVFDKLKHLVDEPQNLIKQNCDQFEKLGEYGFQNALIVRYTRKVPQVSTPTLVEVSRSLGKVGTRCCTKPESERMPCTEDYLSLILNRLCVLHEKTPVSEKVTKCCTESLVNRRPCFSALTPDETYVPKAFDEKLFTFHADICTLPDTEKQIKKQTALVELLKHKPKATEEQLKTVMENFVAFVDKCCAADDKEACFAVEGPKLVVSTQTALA

B1: anti-αKlotho Fab clone 4809 (Fab, V domains shown)
VH: EVQLVESGGGLVQPGGSLRLSCAASGFNIYSYYIHWVRQAPGKGLEWVASIYSYYGSTSYADSVKGRFTISADTSKNTAYLQMNSLRAEDTAVYYCARSGPWAWYGLDYWGQGTLVTVSS
VL: DIQMTQSPSSLSASVGDRVTITCRASQSVSSAVAWYQQKPGKAPKLLIYSASSLYSGVPSRFSGSRSGTDFTLTISSLQPEDFATYYCQQSGWAYHPITFGQGTKVEIKR
notes: Fab (also as Fab-phage); FLAG tag on light chain; also called sb178
As a reminder, the Kd is the concentration at which binding is half-saturated. A high value points to weaker binding. In general, koff refers to a measure of how fast the partners let go of each other. Higher therefore signals a short-lived complex. Broadly, the kon is the rate constant with which the complex forms. Higher therefore signals faster complex formation. On to B1, for which, in test [1], binding was characterised by a dissociation constant (Kd) of 0.46 nM, the koff was 0.000258 s⁻¹ and the association rate constant (kon) came out at 560000 M⁻¹ s⁻¹. Further, in the test with bovine serum albumin, the binding result was “no binding (tested: 5 ug/ml)”. Further, the Kd in test [2] was found to be 0.845 nM.

B2: anti-αKlotho Fab clone 4820 (Fab, V domains shown)
VH: EVQLVESGGGLVQPGGSLRLSCAASGFNISSYYMHWVRQAPGKGLEWVASIYSSYSSTYYADSVKGRFTISADTSKNTAYLQMNSLRAEDTAVYYCARGAWAMDYWGQGTLVTVSS
VL: B1 VL with G92P, A94G, Y95A, H96Y, P97L
notes: Fab (also as Fab-phage); FLAG tag on light chain; also called sb189
For B2, in test [1], the Kd was 1.48 nM, the koff came out at 0.00116 s⁻¹ and the kon was determined as 780000 M⁻¹ s⁻¹. Besides, the binding result with bovine serum albumin is recorded as “no binding (tested: 5 ug/ml)”. In test [2], binding was put at a Kd of 2.7 nM.

B3: anti-αKlotho Fab clone 4813 (Fab, V domains shown)
VH: EVQLVESGGGLVQPGGSLRLSCAASGFNLYSSSIHWVRQAPGKGLEWVASISPYSGYTYYADSVKGRFTISADTSKNTAYLQMNSLRAEDTAVYYCARYYSGWYSPAWWYGIDYWGQGTLVTVSS
VL: B1 VL with S91A, G92A, A94G, Y95G, H96A
notes: Fab (also as Fab-phage); FLAG tag on light chain; also called sb182
In test [1], B3 returned a Kd of 2.8 nM, a koff of 0.00164 s⁻¹ and a kon of 588000 M⁻¹ s⁻¹. In test [2], this molecule displayed a Kd of 5.2 nM.

B4: anti-αKlotho Fab clone 4826 (Fab, V domains shown)
VH: EVQLVESGGGLVQPGGSLRLSCAASGFNISSYYMHWVRQAPGKGLEWVASISSSYGYTYYADSVKGRFTISADTSKNTAYLQMNSLRAEDTAVYYCARGYPASSYYYPSSALDYWGQGTLVTVSS
VL: B1 VL with S91A, W93F, A94F, Y95S, H96Y
notes: Fab (also as Fab-phage); FLAG tag on light chain; also called sb195
Regarding B4, in test [1], the Kd is 2.03 nM, the koff was determined as 0.00218 s⁻¹ and the kon came to 1.07e+06 M⁻¹ s⁻¹. The Kd in test [2] was determined as 3.3 nM.

B5: anti-αKlotho Fab clone 4812 (Fab, V domains shown)
VH: EVQLVESGGGLVQPGGSLRLSCAASGFNLSSYSMHWVRQAPGKGLEWVASISSYSGYTSYADSVKGRFTISADTSKNTAYLQMNSLRAEDTAVYYCARSYSWWWSVSYAMDYWGQGTLVTVSS
VL: DIQMTQSPSSLSASVGDRVTITCRASQSVSSAVAWYQQKPGKAPKLLIYSASSLYSGVPSRFSGSRSGTDFTLTISSLQPEDFATYYCQQGYWLFTFGQGTKVEIK
notes: Fab (also as Fab-phage); FLAG tag on light chain; also called sb181
Take B5: in test [1], the Kd amounted to 0.387 nM, the koff stood at 0.000191 s⁻¹ and the kon is 493000 M⁻¹ s⁻¹. Besides, binding in test [2] was put at a Kd of 0.885 nM.

B6: anti-αKlotho Fab clone 4818 (Fab, V domains shown)
VH: EVQLVESGGGLVQPGGSLRLSCAASGFNISYSSIHWVRQAPGKGLEWVASISPYSGYTYYADSVKGRFTISADTSKNTAYLQMNSLRAEDTAVYYCARSGHSVYWWWSHFGMDYWGQGTLVTVSS
VL: DIQMTQSPSSLSASVGDRVTITCRASQSVSSAVAWYQQKPGKAPKLLIYSASSLYSGVPSRFSGSRSGTDFTLTISSLQPEDFATYYCQQPYSPITFGQGTKVEIKR
notes: Fab (also as Fab-phage); FLAG tag on light chain; also called sb187
In test [1], B6 showed a Kd of 1.05 nM, a dissociation rate constant (koff) of 0.000539 s⁻¹ and a kon of 512000 M⁻¹ s⁻¹. In test [2], the Kd came out at 2.1 nM.

B7: anti-αKlotho Fab clone 4816 (Fab, V domains shown)
VH: EVQLVESGGGLVQPGGSLRLSCAASGFNFSSSSIHWVRQAPGKGLEWVASISSSYGYTYYADSVKGRFTISADTSKNTAYLQMNSLRAEDTAVYYCARGWYAAYSVYWFGGHASYGLDYWGQGTLVTVSS
VL: DIQMTQSPSSLSASVGDRVTITCRASQSVSSAVAWYQQKPGKAPKLLIYSASSLYSGVPSRFSGSRSGTDFTLTISSLQPEDFATYYCQQSSYSLITFGQGTKVEIKR
notes: Fab (also as Fab-phage); FLAG tag on light chain; also called sb185
Turning to B7, in test [1], the Kd was found to be 2.06 nM, the koff is 0.00183 s⁻¹ and the kon came out at 888000 M⁻¹ s⁻¹. The Kd in test [2] was 3.7 nM.

B8: anti-αKlotho Fab clone 4806 (Fab, V domains shown)
VH: EVQLVESGGGLVQPGGSLRLSCAASGFNISSSSIHWVRQAPGKGLEWVAYISSSYSSTSYADSVKGRFTISADTSKNTAYLQMNSLRAEDTAVYYCARSSGGGYYHWWVVPYAMDYWGQGTLVTVSS
VL: B7 VL
notes: Fab (also as Fab-phage); FLAG tag on light chain; also called sb175
In the case of B8, the binding result with bovine serum albumin is on record as “no binding (tested: 5 ug/ml)”.

B9: anti-αKlotho Fab clone 4821 (Fab, V domains shown)
VH: EVQLVESGGGLVQPGGSLRLSCAASGFNLYYSYMHWVRQAPGKGLEWVASISPYSGSTYYADSVKGRFTISADTSKNTAYLQMNSLRAEDTAVYYCARSGFSSWWWVVSYAFDYWGQGTLVTVSS
VL: B7 VL
notes: Fab (also as Fab-phage); FLAG tag on light chain; also called sb190
B9: in test [1], binding was put at a Kd of 2.85 nM, the koff is 0.00277 s⁻¹ and the kon was 973000 M⁻¹ s⁻¹. In test [2], this molecule returned a Kd of 5.1 nM.

B10: anti-αKlotho Fab clone 4827 (Fab, V domains shown)
VH: EVQLVESGGGLVQPGGSLRLSCAASGFNFSSSSIHWVRQAPGKGLEWVAYISSSSGSTSYADSVKGRFTISADTSKNTAYLQMNSLRAEDTAVYYCARAYHSYFYGSYWSYGWAGALDYWGQGTLVTVSS
VL: B7 VL
notes: Fab (also as Fab-phage); FLAG tag on light chain; also called sb196
As to B10, the binding result with bovine serum albumin was “no binding (tested: 5 ug/ml)”.

B11: anti-αKlotho Fab clone 4810 (Fab, V domains shown)
VH: EVQLVESGGGLVQPGGSLRLSCAASGFNLSSSSIHWVRQAPGKGLEWVAYISPSYGSTSYADSVKGRFTISADTSKNTAYLQMNSLRAEDTAVYYCARSGYYSGAYWHWWVVPYAMDYWGQGTLVTVSS
VL: B7 VL
notes: Fab (also as Fab-phage); FLAG tag on light chain; also called sb179
Regarding B11, in the test with bovine serum albumin, the binding result is on record as “no binding (tested: 5 ug/ml)”.

B12: anti-αKlotho Fab clone 4815 (Fab, V domains shown)
VH: EVQLVESGGGLVQPGGSLRLSCAASGFNFSSSSIHWVRQAPGKGLEWVASISSSYGYTYYADSVKGRFTISADTSKNTAYLQMNSLRAEDTAVYYCARGFSSSAHWYWSWYGPGGGFDYWGQGTLVTVSS
VL: B7 VL
notes: Fab (also as Fab-phage); FLAG tag on light chain; also called sb184
Regarding B12, in the test with bovine serum albumin, the binding result is on record as “no binding (tested: 5 ug/ml)”.

B13: anti-αKlotho Fab clone 4817 (Fab, V domains shown)
VH: EVQLVESGGGLVQPGGSLRLSCAASGFNFSSSSIHWVRQAPGKGLEWVASISSSYGYTYYADSVKGRFTISADTSKNTAYLQMNSLRAEDTAVYYCARGYPSSGAAWFWFSHPGSAMDYWGQGTLVTVSS
VL: B7 VL
notes: Fab (also as Fab-phage); FLAG tag on light chain; also called sb186
With B13, in test [1], the affinity, expressed as Kd, was 1.93 nM; the koff was 0.00269 s⁻¹; the on-rate (kon) was 1.39e+06 M⁻¹ s⁻¹. In test [2], the affinity, expressed as Kd, was 4.1 nM.

B14: anti-αKlotho Fab clone 4834 (Fab, V domains shown)
VH: EVQLVESGGGLVQPGGSLRLSCAASGFNFSSSSIHWVRQAPGKGLEWVASISSSYGYTYYADSVKGRFTISADTSKNTAYLQMNSLRAEDTAVYYCARAVSFYYWAWYGPGFAMDYWGQGTLVTVSS
VL: B7 VL
notes: Fab (also as Fab-phage); FLAG tag on light chain; also called sb203
Turning to B14, the binding result in the test with bovine serum albumin was “no binding (tested: 5 ug/ml)”.
